Results on one molecule are retold here after patent publication US20220332804A1 (CSL INNOVATION, published 2022).

Holding throughout (assay): SPR; KD relative to WT C2;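 also: biacore SPR at 37 °C, anti-C2 mAbs captured on an anti-human IgG chip, alanine or serine C2 surface mutants tested, KD from 1:1 fit compared with wild-type C2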
(In SPR one partner is held on a chip, and binding of the other changes the refractive index at the surface.)

One assay addresses T1, human C2 N471A (human, UniProt P06681 21-752).
T1 sequence: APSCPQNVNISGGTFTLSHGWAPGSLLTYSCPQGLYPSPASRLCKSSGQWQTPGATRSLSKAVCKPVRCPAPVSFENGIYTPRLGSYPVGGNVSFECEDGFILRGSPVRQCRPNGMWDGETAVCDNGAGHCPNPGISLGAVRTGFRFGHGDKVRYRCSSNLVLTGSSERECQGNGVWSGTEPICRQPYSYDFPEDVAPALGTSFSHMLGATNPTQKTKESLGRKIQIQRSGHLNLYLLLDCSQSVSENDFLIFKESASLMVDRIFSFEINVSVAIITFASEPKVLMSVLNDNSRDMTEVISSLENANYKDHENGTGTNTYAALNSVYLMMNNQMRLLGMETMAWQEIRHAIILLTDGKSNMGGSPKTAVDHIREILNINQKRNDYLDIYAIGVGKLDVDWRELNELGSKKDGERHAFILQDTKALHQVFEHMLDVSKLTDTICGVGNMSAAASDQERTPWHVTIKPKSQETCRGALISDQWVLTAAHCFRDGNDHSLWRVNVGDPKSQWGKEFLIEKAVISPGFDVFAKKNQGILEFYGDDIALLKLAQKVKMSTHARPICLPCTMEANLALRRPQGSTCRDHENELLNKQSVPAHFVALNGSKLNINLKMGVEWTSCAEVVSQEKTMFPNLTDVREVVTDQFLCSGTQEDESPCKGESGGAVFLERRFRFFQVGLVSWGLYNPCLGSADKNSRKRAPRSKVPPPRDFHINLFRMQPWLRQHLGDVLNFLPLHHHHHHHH

A further assay has as its target T2, human C2 G432A (human, UniProt P06681 21-752).
T2 sequence: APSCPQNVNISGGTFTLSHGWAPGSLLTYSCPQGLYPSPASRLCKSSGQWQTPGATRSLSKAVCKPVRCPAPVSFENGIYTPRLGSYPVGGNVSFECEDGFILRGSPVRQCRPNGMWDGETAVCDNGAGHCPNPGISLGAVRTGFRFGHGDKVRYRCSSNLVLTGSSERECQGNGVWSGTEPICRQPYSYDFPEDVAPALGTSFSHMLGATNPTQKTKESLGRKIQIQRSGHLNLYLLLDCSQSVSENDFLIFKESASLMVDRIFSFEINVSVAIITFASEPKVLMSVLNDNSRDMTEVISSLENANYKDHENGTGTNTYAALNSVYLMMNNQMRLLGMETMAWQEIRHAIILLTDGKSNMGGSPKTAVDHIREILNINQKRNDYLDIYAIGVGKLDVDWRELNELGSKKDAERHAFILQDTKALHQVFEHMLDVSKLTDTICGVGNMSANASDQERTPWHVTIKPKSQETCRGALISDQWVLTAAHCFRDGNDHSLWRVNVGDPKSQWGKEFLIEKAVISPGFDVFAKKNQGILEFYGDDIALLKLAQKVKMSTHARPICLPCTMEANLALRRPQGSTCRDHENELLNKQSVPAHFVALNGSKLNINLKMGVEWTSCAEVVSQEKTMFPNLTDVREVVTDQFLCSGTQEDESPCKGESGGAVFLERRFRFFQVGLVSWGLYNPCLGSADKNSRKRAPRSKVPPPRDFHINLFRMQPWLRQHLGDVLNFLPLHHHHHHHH

The target in the next assay is T3, human C2 L439A (human, UniProt P06681 21-752).
T3 sequence: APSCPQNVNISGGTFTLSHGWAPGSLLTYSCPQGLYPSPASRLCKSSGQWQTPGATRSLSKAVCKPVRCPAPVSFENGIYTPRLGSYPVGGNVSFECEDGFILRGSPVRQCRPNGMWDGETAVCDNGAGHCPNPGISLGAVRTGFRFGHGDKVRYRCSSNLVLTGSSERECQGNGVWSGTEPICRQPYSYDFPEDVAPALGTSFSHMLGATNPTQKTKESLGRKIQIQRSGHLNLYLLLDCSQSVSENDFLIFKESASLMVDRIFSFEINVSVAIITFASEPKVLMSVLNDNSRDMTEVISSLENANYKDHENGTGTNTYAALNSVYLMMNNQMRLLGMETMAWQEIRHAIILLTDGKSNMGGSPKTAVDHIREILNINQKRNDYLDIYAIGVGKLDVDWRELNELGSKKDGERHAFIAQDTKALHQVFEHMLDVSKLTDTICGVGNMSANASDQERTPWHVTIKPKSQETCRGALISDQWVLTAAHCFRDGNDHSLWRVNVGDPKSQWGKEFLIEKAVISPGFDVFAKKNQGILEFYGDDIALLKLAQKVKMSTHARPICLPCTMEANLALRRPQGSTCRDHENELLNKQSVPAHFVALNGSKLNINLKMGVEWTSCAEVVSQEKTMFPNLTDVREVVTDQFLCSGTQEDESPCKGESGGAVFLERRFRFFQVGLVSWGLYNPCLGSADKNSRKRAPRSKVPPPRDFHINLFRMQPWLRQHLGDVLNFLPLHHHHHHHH

Another assay addresses T4, human C2 G427A (human, UniProt P06681 21-752).
T4 sequence: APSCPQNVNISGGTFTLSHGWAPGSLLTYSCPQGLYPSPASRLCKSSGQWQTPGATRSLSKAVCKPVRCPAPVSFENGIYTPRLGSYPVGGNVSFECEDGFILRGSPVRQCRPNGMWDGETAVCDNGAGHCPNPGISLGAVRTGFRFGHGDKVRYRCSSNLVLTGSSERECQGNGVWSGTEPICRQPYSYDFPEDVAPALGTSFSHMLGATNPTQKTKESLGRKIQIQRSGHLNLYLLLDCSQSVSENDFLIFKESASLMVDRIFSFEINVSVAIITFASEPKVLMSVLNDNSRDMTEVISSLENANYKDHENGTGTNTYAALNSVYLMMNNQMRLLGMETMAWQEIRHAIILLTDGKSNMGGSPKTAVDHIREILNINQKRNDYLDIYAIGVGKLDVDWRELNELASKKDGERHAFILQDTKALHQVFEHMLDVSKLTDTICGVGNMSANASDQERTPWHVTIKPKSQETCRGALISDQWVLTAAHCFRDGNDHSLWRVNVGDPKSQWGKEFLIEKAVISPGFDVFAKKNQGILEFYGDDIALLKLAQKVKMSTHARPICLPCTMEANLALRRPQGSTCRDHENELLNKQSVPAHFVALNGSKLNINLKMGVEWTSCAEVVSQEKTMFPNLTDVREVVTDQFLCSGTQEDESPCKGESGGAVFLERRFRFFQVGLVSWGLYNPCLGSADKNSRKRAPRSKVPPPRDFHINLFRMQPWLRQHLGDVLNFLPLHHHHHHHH

Description for human C2 G427A: (§1) Surface plasmon resonance (SPR, Biacore) was used for all binding affinity analyses. In brief, goat anti-human IgG was directly immobilised onto the carboxymethyl dextran surface of CM5 sensorchips to approximately 12,000 RU using standard NHS/EDC chemistry at pH 5. The immobilised antibody surface was pre-conditioned with ten injections of polyclonal human IgG (Privigen 60 s) prepared at 1 μg/mL. Ligands (anti-C2 mAbs) were captured at the beginning of each cycle as described below. An adjacent spot or flow cell in which only Polyclonal IgG was capture was used as a reference surface. The goat anti-human IgG Fc antibody surface was regenerate in 100 mM H3PO4, injected for 45 seconds at the end of each cycle. Experiments were performed at 37° C. and the flow rate of each experiment was kept constant at 30 μL/min.
(§2) Sensogram data was double-referenced against a reference anti-IgG surface (i.e. minus anti-C2 mAb) and blank buffer injections obtained within each experiment. The binding data was fit to 1:1 (kinetic or steady-state) model using local Rmax and null refraction index (RI=0) when appropriate. Buffers and solutions were filtered (0.22 μm) prior to use.
(§3) The C2 mutants were designed to test the importance of surface exposed residues for antibody binding. Residues located at either the N-terminal VWA domain or C-terminal protease domain of C were replaced by either alanine or serine and tested for binding against anti-C2 antibodies.
Description for human C2 G432A: as §1, §2, §3
Description for human C2 L439A: as §1, §2, §3
Description for human C2 N471A: as §1, §2, §3

B1: RF16-214 (antibody, V domains shown)
VH: EVQLLESGGGLVQPGGSLRLSCAASGFTFSWYQMMWVRQAPGKGLEWVSRIYPSGGGTAYADSVKGRFTISRDNSKNTLYLQMNSLRAEDTAVYYCARDAGYGDNWGQGTLVTVSS
VL: QSALTQPPSVSVSPGQTASITCSGDKLGEKYASWYQQKAGQSPVMVIYQDRKRPSGIPERFSGSNSGNTATLTISGTQAMDEADYYCQAWDTRAVVFGGGTKLTVLG
As to B1, the Fold diff with human C2 N471A was found to be 1 fold; with human C2 G432A, 1 fold; with human C2 L439A it was 42 fold; with human C2 G427A it was 0 fold.
